Data from article PMC4330359, “DNA-mediated cooperativity facilitates the co-selection of cryptic enhancer sequences by SOX2 and PAX6 transcription factors”.

What was measured:
Sox2-HMG long (109 aa) [1] = biological target: T1, Sox2-HMG long (109 aa) (mouse, UniProt P48432 41-149); assay: NMR; 1:1.2 Sox2:DC5; EMSA: 10 mM Tris-HCl pH 8.0, 0.1 mg/ml BSA, 50 uM ZnCl2, 100 mM KCl, 10% glycerol, 0.1% IGEPAL CA-630, 2 mM 2-mercaptoethanol, 1-2 h, gel at 4 C, 100-300 nM DNA; NMR: 50 mM K phosphate, 100 mM NaCl, pH 7.0, 298 K; conditions: protein: recombinant; blunt
[2] = biological target: Sox2-HMG long (109 aa);Pax2-PRD (mouse;mouse?, UniProt P48432;P32114 41-149;15-141, |); assay: EMSA; cooperative; EMSA: 10 mM Tris-HCl pH 8.0, 0.1 mg/ml BSA, 50 uM ZnCl2, 100 mM KCl, 10% glycerol, 0.1% IGEPAL CA-630, 2 mM 2-mercaptoethanol, 1-2 h, gel at 4 C, 100-300 nM DNA; NMR: 50 mM K phosphate, 100 mM NaCl, pH 7.0, 298 K; conditions: protein: recombinant;recombinant; tags: ;; copies: 1;1; label: 5'-FAM or 5'-Cy5; blunt
[3] = biological target: Sox2-HMG long (109 aa);Pax9-PRD (mouse;mouse?, UniProt P48432;P47242 41-149;4-130, |); assay: as above; conditions: protein: recombinant;recombinant; tags: ;; copies: 1;1; label: 5'-FAM or 5'-Cy5; blunt
[4] = biological target: Sox2-HMG long (109 aa);Pax3-PRD (mouse;mouse?, UniProt P48432;P24610 41-149;34-161, |); assay: as above; conditions: protein: recombinant;recombinant; tags: ;; copies: 1;1; label: 5'-FAM or 5'-Cy5; blunt
[5] = biological target: Sox2-HMG long (109 aa);Pax8-PRD (mouse;mouse?, UniProt P48432;Q00288 41-149;9-135, |); assay: as above; conditions: protein: recombinant;recombinant; tags: ;; copies: 1;1; label: 5'-FAM or 5'-Cy5; blunt
[6] = biological target: Sox2-HMG long (109 aa);Pax6-PRD R44Q (mouse;mouse?, UniProt P48432;P63015 41-149;4-130, |R44Q); assay: EMSA; cooperativity not affected by R44Q; EMSA: 10 mM Tris-HCl pH 8.0, 0.1 mg/ml BSA, 50 uM ZnCl2, 100 mM KCl, 10% glycerol, 0.1% IGEPAL CA-630, 2 mM 2-mercaptoethanol, 1-2 h, gel at 4 C, 100-300 nM DNA; NMR: 50 mM K phosphate, 100 mM NaCl, pH 7.0, 298 K; conditions: protein: recombinant;recombinant; tags: ;; copies: 1;1; label: 5'-FAM or 5'-Cy5; blunt
Sox2-HMG long (109 aa) [7] = biological target: T1, Sox2-HMG long (109 aa); assay: EMSA; binary Sox2-DNA complex prominent; EMSA: 10 mM Tris-HCl pH 8.0, 0.1 mg/ml BSA, 50 uM ZnCl2, 100 mM KCl, 10% glycerol, 0.1% IGEPAL CA-630, 2 mM 2-mercaptoethanol, 1-2 h, gel at 4 C, 100-300 nM DNA; NMR: 50 mM K phosphate, 100 mM NaCl, pH 7.0, 298 K; conditions: protein: recombinant; label: 5'-FAM or 5'-Cy5; blunt

T1 sequence (P48432 41-149): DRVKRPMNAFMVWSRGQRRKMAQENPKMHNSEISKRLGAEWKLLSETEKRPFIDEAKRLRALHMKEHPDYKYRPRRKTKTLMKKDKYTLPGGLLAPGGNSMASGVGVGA
Sequence of Sox2-HMG long (109 aa);Pax9-PRD (P48432 41-149, chain 1 of 2): as the sequence (P48432 41-149) above
Sequence of Sox2-HMG long (109 aa);Pax9-PRD (P47242 4-130, chain 2 of 2): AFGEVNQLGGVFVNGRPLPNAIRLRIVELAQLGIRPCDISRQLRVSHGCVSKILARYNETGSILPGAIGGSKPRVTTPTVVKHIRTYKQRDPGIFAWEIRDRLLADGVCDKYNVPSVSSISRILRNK
Sequence of Sox2-HMG long (109 aa);Pax2-PRD (P48432 41-149, chain 1 of 2): as the sequence (P48432 41-149) above
Sequence of Sox2-HMG long (109 aa);Pax2-PRD (P32114 15-141, chain 2 of 2): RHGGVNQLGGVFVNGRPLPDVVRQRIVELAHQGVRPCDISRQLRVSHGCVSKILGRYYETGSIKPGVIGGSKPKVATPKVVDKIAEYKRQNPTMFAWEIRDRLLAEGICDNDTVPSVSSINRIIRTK
Sequence of Sox2-HMG long (109 aa);Pax8-PRD (P48432 41-149, chain 1 of 2): as the sequence (P48432 41-149) above
Sequence of Sox2-HMG long (109 aa);Pax8-PRD (Q00288 9-135, chain 2 of 2): as the sequence (P32114 15-141, chain 2 of 2) above, with R1G, V5L, V11A, D20E, E28D, K64R, D82E, A85G, E86D, I108V counted along it
Sequence of Sox2-HMG long (109 aa);Pax3-PRD (P48432 41-149, chain 1 of 2): as the sequence (P48432 41-149) above
Sequence of Sox2-HMG long (109 aa);Pax3-PRD (P24610 34-161, chain 2 of 2): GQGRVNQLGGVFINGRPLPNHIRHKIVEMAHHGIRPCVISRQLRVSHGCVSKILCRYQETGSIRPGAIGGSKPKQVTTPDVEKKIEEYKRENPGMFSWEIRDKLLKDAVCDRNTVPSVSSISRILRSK
Sequence of Sox2-HMG long (109 aa);Pax6-PRD R44Q (P48432 41-149, chain 1 of 2): as the sequence (P48432 41-149) above
Sequence of Sox2-HMG long (109 aa);Pax6-PRD R44Q (P63015 4-130 R44Q, chain 2 of 2): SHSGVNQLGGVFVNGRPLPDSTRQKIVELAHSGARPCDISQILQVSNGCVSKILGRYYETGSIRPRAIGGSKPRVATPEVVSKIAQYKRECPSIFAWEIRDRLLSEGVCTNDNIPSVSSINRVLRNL

B1: DC5 31-mer (NMR) (dsDNA)
DNA 1: TTCATTGTTGTTGCTCACCTACCATGGATCC
DNA 2: GGATCCATGGTAGGTGAGCAACAACAATGAA
B1: binds (Sox2-HMG long (109 aa) [1]).

B2: DC5 (dsDNA)
DNA 1: AAATATTCATTGTTGTTGCTCACCTACCATGGATCC
DNA 2: GGATCCATGGTAGGTGAGCAACAACAATGAATATTT
B2: binds [2]; binds [3]; binds [4]. B2: binds [5]; binds [6].

B3: DC5con (dsDNA)
DNA 1: AAATATTCATTGTTGATGTTCACGCATCATGGATCC
DNA 2: GGATCCATGATGCGTGAACATCAACAATGAATATTT
B3: binds (Sox2-HMG long (109 aa) [7]).
